Assay results as given in US8367612B2, “Compositions containing, methods involving, and uses of non-natural amino acids and polypeptides” (Ambrx, Inc., priority 2004, dated 2013).

test: Pharmacokinetic studies, single s.c. dose in rats, plasma concentration by growth hormone ELISA; format: in vivo; conditions: single-dose 1 mg/kg bolus s.c., normal male Sprague-Dawley rats; average
Method: Pharmacokinetic properties of PEG-modified growth hormone compounds were compared to each other and to nonPEGylated growth hormone in male Sprague-Dawley rats (261-425 g) obtained from Charles River Laboratories. Catheters were surgically installed into the carotid artery for blood collection. Following successful catheter installation, animals were assigned to treatment groups (three to six per group) prior to dosing. Animals were dosed subcutaneously with 1 mg/kg of compound in a dose volume of 0.41-0.55 ml/kg. Blood samples were collected at various time points via the indwelling catheter and into EDTA-coated microfuge tubes. Plasma was collected after centrifugation, and stored at −80° C. until analysis. Compound concentrations were measured using antibody sandwich growth hormone ELISA kits from either BioSource International (Camarillo, Calif.) or Diagnostic Systems Laboratories (Webster, Tex.). Concentrations were calculated using standards corresponding to the analog that was dosed. Pharmacokinetic parameters were estimated using the modeling program WinNonlin (Pharsight, version 4.1). Noncompartmental analysis with linear-up/log-down trapezoidal integration was used, and concentration data was uniformly weighted.
Plasma concentrations were obtained at regular intervals following a single subcutaneous dose in rats. […] Plasma samples were taken over the regular time intervals and assayed for injected compound as described. […] Concentration vs time curves were evaluated by noncompartmental analysis (Pharsight, version 4.1). Values shown are averages (+/− standard deviation). Cmax: maximum concentration; terminal t1/2: terminal half-life; AUC0→inf: area under the concentration-time curve extrapolated to infinity; MRT: mean residence time; Cl/f: apparent total, plasma clearance; Vz/f: apparent volume of distribution during terminal phase.

For “30KPEG-pAF35(his)hGH: "hGH polypeptides comprising p-acetyl-phenylalanine covalently-linked to 30 kDa PEG at positions 35 and 92" (position 35, His-tagged)”, the “AUC 0->inf” value was 39,918 ng × hr/ml.
For “30KPEG-pAF145(his)hGH: "His-tagged hGH polypeptide comprising non-natural amino acid p-acetyl-phenylalanine covalently linked to 30 kDa PEG at each of six different positions"”, the “AUC 0->inf” value was 13,162 ng × hr/ml.
With “30KPEG-pAF134(his)hGH: "His-tagged hGH polypeptide comprising non-natural amino acid p-acetyl-phenylalanine covalently linked to 30 kDa PEG at each of six different positions"” the “AUC 0->inf” value was 7,304 ng × hr/ml.
With “30KPEG-pAF143(his)hGH: "His-tagged hGH polypeptide comprising non-natural amino acid p-acetyl-phenylalanine covalently linked to 30 kDa PEG at each of six different positions"” the “AUC 0->inf” value was 17,494 ng × hr/ml.
With “30KPEG-pAF131(his)hGH: "His-tagged hGH polypeptide comprising non-natural amino acid p-acetyl-phenylalanine covalently linked to 30 kDa PEG at each of six different positions"” the “AUC 0->inf” value was 6,978 ng × hr/ml.

First: 30KPEG-pAF35(his)hGH: "hGH polypeptides comprising p-acetyl-phenylalanine covalently-linked to 30 kDa PEG at positions 35 and 92" (position 35, His-tagged)
Second: 30KPEG-pAF145(his)hGH: "His-tagged hGH polypeptide comprising non-natural amino acid p-acetyl-phenylalanine covalently linked to 30 kDa PEG at each of six different positions"
The Cl/f of the first is 2.5-fold lower: 0.583 mL/min/kg for the first, 1.47 mL/min/kg for the second.

Going from “30KPEG-pAF134(his)hGH: "His-tagged hGH polypeptide comprising non-natural amino acid p-acetyl-phenylalanine covalently linked to 30 kDa PEG at each of six different positions"” to “30KPEG-pAF143(his)hGH: "His-tagged hGH polypeptide comprising non-natural amino acid p-acetyl-phenylalanine covalently linked to 30 kDa PEG at each of six different positions"”, the Cl/f falls from 2.52 mL/min/kg to 0.983 mL/min/kg (2.6-fold).

“30KPEG-pAF131(his)hGH: "His-tagged hGH polypeptide comprising non-natural amino acid p-acetyl-phenylalanine covalently linked to 30 kDa PEG at each of six different positions"” gave a Cl/f of 2.68 mL/min/kg.

With “30KPEG-pAF35(his)hGH: "hGH polypeptides comprising p-acetyl-phenylalanine covalently-linked to 30 kDa PEG at positions 35 and 92" (position 35, His-tagged)” the Cmax was 1,885 ng/ml.

“30KPEG-pAF35(his)hGH: "hGH polypeptides comprising p-acetyl-phenylalanine covalently-linked to 30 kDa PEG at positions 35 and 92" (position 35, His-tagged)” and “30KPEG-pAF145(his)hGH: "His-tagged hGH polypeptide comprising non-natural amino acid p-acetyl-phenylalanine covalently linked to 30 kDa PEG at each of six different positions"” are within 1.5-fold of each other in MRT: 19.16 h for the first, 17.82 h for the second.

Compared with “30KPEG-pAF134(his)hGH: "His-tagged hGH polypeptide comprising non-natural amino acid p-acetyl-phenylalanine covalently linked to 30 kDa PEG at each of six different positions"”, “30KPEG-pAF143(his)hGH: "His-tagged hGH polypeptide comprising non-natural amino acid p-acetyl-phenylalanine covalently linked to 30 kDa PEG at each of six different positions"” is 1.5-fold higher in MRT: 12.15 h for the first, 18.83 h for the second.

For “30KPEG-pAF131(his)hGH: "His-tagged hGH polypeptide comprising non-natural amino acid p-acetyl-phenylalanine covalently linked to 30 kDa PEG at each of six different positions"”, the MRT was 14.28 h.

“30KPEG-pAF35(his)hGH: "hGH polypeptides comprising p-acetyl-phenylalanine covalently-linked to 30 kDa PEG at positions 35 and 92" (position 35, His-tagged)” and “30KPEG-pAF145(his)hGH: "His-tagged hGH polypeptide comprising non-natural amino acid p-acetyl-phenylalanine covalently linked to 30 kDa PEG at each of six different positions"” are within 1.5-fold of each other in “Terminal t1/2” value: 4.85 h for the first, 5.87 h for the second.

“30KPEG-pAF134(his)hGH: "His-tagged hGH polypeptide comprising non-natural amino acid p-acetyl-phenylalanine covalently linked to 30 kDa PEG at each of six different positions"” and “30KPEG-pAF143(his)hGH: "His-tagged hGH polypeptide comprising non-natural amino acid p-acetyl-phenylalanine covalently linked to 30 kDa PEG at each of six different positions"” are within 1.5-fold of each other in “Terminal t1/2” value: 4.36 h for the first, 6.02 h for the second.

For “30KPEG-pAF131(his)hGH: "His-tagged hGH polypeptide comprising non-natural amino acid p-acetyl-phenylalanine covalently linked to 30 kDa PEG at each of six different positions"”, the “Terminal t1/2” value was 4.41 h.

“30KPEG-pAF145(his)hGH: "His-tagged hGH polypeptide comprising non-natural amino acid p-acetyl-phenylalanine covalently linked to 30 kDa PEG at each of six different positions"” and “30KPEG-pAF134(his)hGH: "His-tagged hGH polypeptide comprising non-natural amino acid p-acetyl-phenylalanine covalently linked to 30 kDa PEG at each of six different positions"” are within 1.5-fold of each other in Cmax: 634 ng/mL for the first, 566 ng/mL for the second.

Going from “30KPEG-pAF143(his)hGH: "His-tagged hGH polypeptide comprising non-natural amino acid p-acetyl-phenylalanine covalently linked to 30 kDa PEG at each of six different positions"” to “30KPEG-pAF131(his)hGH: "His-tagged hGH polypeptide comprising non-natural amino acid p-acetyl-phenylalanine covalently linked to 30 kDa PEG at each of six different positions"”, the Cmax falls from 803 ng/mL to 497 ng/mL (1.6-fold).
